Test results reported in the supplement of paper PMC11908140.

B1: library; numbered along this chain (parent)
chain: MRKPRAAVGSGHRKQAASQEGRQKHAKNNSQAKPSACDGLARQPEEVVLQASVSSYHLFRDVAEVTAFRGSLLSWYDQEKRDLPWRRRAEDEMDLDRRAYAVWVSEVMLQQTQVATVINYYTGWMQKWPTLQDLASASLEEVNQLWAGLGYYSRGRRLQEGARKVVEELGGHMPRTAETLQQLLPGVGRYTAGAIASIAFGQATGVVDGNVARVLCRVRAIGADPSSTLVSQQLWGLAQQLVDPARPGDFNQAAMELGATVCTPQRPLCSQCPVESLCRARQRVEQEQLLASGSLSGSPDVEECAPNTGQCHLCLPPSEPWDQTLGVVNFPRKASRKPPREESSATCVLEQPGALGAQILLVQRPNSGLLAGLWEFPSVTWEPSEQLQRKALLQELQRWAGPLPATHLRHLGEVVHTFSHIKLTYQVYGLALEGQTPVTTVPPGARWLTQEEFHTAAVSTAMKKVFRVYQGQQPGTCMGSKRSQVSSPCSRKKPRMGQQVLDNFFRSHISTDAHSLNSAAQ

Variants of: B1
Assay: 8OG:A repair function score (normalized; synonymous = 0, nonsense = -1) (normalized log-likelihood score); higher = more repair activity (WT-like)
Conditions: with 8OG:A DNA repair reporter (GFP) in HEK-293 MUTYH KO cells
Experimental: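 Saturation mutagenesis (NNN codon scan) of the MUTYH cDNA (521-aa nuclear isoform NM_001048174.1 / NP_001041639), stably expressed under doxycycline induction in HEK-293 MUTYH knockout cells. Cells were co-transfected with an 8OG:A-bearing GFP repair reporter plus mCherry and sorted 72 h later into GFP+ and GFP− bins, three replicates per tile. The Rosace log2 enrichment (GFP+ vs GFP−) was converted per tile to a normalized function score with synonymous variants centered at 0 and nonsense variants (codons 1-471) at -1; low-abundance variants were removed.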

Variant | 8OG:A repair function score
C489L | 0.0177
V301I | -0.0154
G70T | -0.693
A334E | -0.0264
R467D | -0.0155
Q450I | -0.0986
V62K | 0.00655
P316L | -0.126
S515E | 0.0198
I509A | 0.0157
F68M | -0.0967
R364G | -0.353
L448P | -0.895
T455H | 0.0572
T346M | -0.125
E92Y | -0.0538
E302S | -0.307
Q144K | -7.85e-05
L423G | 0.0807
E452S | -0.0485
S367R | -0.201
R246A | -0.605
P84V | -0.206
S197W | -1.37

Variant | 8OG:A repair function score
K390D | 0.0762
R81Y | -0.359
I198E | -0.552
V362C | -0.232
A177W | -0.324
Q394H | 0.21
V458W | -0.709
P129L | -0.577
T417K | 0.36
R279A | -0.278
H410M | 0.0995
M496V | -0.0328
R398W | -0.973
S378H | -0.255
G497Y | -0.0861
P365A | -0.0399
G205A | -0.145
Q388N | 0.244
N366Y | 0.00766
L237G | -0.848
D61A | -0.0921
L448M | 0.207
R482C | 0.0254
A345M | -0.102

Variant | 8OG:A repair function score
P320D | -0.134
A291V | -0.0187
E452Q | -0.335
S480Y | -0.0114
R86S | -1.03
L373K | -0.314
A89K | -0.0427
P402A | -0.0823
P474M | 0.0118
T346Q | -0.787
L73R | -0.593
T380Q | 0.429
T116L | 0.023
P174A | -0.706
R506P | 0.0202
W447Q | -1.16
A245D | 0.223
V166M | -0.0629
P339Q | -0.0157
Y151Q | -0.672
F453C | -0.791
E168W | -0.201
R266V | -0.119
S384N | -0.0929

Variant | 8OG:A repair function score
A223D | -0.631
G186T | -0.373
G444R | -0.119
T308M | -0.0648
G209Y | -0.757
R98F | -0.114
R156D | -0.477
S378A | -0.104
S343K | 0.133
W321R | -0.203
L268E | -0.133
S486H | 0.026
T439D | -0.225
L58V | -0.00997
D502Y | -0.0488
L229G | -0.0206
V142Q | -0.397
A36W | -0.0681
P225H | -0.374
Q484G | 0.00288
E46A | 0.0651
Q181K | -0.0739
S419Y | -0.503
T346L | -0.0228

Variant | 8OG:A repair function score
G150P | -1.54
R154Q | -1.06
L290E | -0.0564
C477Q | 0.0117
M478T | -0.0383
V142F | -0.926
R340E | -0.133
Y76F | -0.0268
D300M | -0.0873
A89G | -0.0247
C278A | -1.11
L373N | -0.777
V107S | -0.135
S459H | -0.136
Y56F | 0.0047
R157H | -0.0973
L73I | -0.0679
Q310M | -0.0144
A203V | 0.0414
V348M | -0.551
L73M | -0.0108
R157S | -0.182
L131G | -0.424
R69Y | -0.421

Variant | 8OG:A repair function score
M173R | -1.15
L360W | -1.54
Y100P | -2.33
R281D | -0.447
Q271K | 0.0343
E433S | 0.0139
P84Y | -0.697
Q126M | 0.0168
W128A | -0.875
G171S | -0.267
Q388L | 0.511
T455D | -0.394
V102G | -1.36
G293Q | -0.00725
L355N | 0.0266
L361R | -1.12
V427C | -0.195
L295Q | -0.0618
N210F | -1
S378M | -0.037
S298L | 0.0173
R495H | 0.00173
V102I | -0.00401
W374L | -0.36

Variant | 8OG:A repair function score
Q310T | 0.0177
E382I | -0.0196
S55T | 0.00523
E413W | -0.379
C262G | -1
S486M | -0.00979
W399M | -0.301
R336S | -0.097
G372K | -0.479
L149R | -0.729
E160D | -0.104
P437F | -0.282
V427S | -0.925
Q78A | -0.00817
L169M | 0.0203
L40K | 0.127
H57D | -0.824
G150T | -1.35
S71I | -0.125
E342H | 0.0491
E64P | -0.284
L290R | 0.0252
P247C | -0.799
